Measurements from publication PMC4960638, “Changes in the folding landscape of the WW domain provide a molecular mechanism for an inherited genetic syndrome” (Scientific Reports, 2016).
Bridges are numbered along the chain shown (N, C = ends). Where no end group is shown, it is not given here.

Target: the molecule itself
Assay: SEC; size exclusion chromatography in the purification of the WW domain; column and buffer not shown (SI)

B1: WW domain of polyglutamine tract-binding protein 1 (PQBP1), Y65C mutant, 37 amino acid construct (domain or fragment, human, UniProt O60828 47-83, looked up)
chain: GLPPSWYKVFDPSCGLPYCWNADTDLVSWLSPHDPNS
modifications: disulfide 14-19 (inferred); not fully specified
notes: the mutation causes Golabi-Ito-Hall syndrome; also called Y65C WW domain; WW Y65C; source: purified by size exclusion chromatography
Which “stoichiometry N” value does the source give for B1 here?
Its value is 2.
